Source: publication PMC10716038, “Talin and kindlin use integrin tail allostery and direct binding to activate integrins” (Nature Structural & Molecular Biology, 2023)
Several values for one entry are separate records, joined by “and”; a condition that tells them apart may be missing. Identical values can stand only once. No end group written: not given here.

Assays:
Settings in all cases: both partners purified
[1] = biological target: T1, kindlin-2 (KIND2) (UniProt Q8CIB5 1-680); test: MST; apparent; KIND2 titrated to 488–β3-CT in the presence of 120 µM THD1-K402E; MST buffer
T1 construct: kindlin-2 (KIND2), recombinant; with the F1 loop and the PH domain (unlike ΔKIND2); source: E. coli Rosetta, purified (IMAC, SEC); not shown: His10-SUMO, N-terminal, cleaved
T1 sequence (looked up): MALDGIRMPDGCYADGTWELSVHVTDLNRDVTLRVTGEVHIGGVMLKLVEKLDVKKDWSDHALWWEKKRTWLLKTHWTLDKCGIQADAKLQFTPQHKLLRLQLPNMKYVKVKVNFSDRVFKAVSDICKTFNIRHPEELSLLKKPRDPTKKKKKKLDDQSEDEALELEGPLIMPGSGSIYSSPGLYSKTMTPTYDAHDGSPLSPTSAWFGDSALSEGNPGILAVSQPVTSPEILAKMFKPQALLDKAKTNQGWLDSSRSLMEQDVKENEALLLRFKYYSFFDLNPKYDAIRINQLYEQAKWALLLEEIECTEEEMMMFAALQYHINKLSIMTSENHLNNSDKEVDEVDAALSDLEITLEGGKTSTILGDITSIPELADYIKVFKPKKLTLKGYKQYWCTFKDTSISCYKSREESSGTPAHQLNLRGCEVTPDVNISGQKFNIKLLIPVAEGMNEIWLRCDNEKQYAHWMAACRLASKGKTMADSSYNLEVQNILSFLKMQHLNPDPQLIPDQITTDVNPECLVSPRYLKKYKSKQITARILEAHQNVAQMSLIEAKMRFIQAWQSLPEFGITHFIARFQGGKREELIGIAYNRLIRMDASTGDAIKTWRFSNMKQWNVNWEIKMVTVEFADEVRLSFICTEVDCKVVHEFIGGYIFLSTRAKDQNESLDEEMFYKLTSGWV

[2] = biological target: T2, talin-2 head domain (THD2) (UniProt Q71LX4 1-408); test: MST; apparent; THD1 titrated to 488–β1-CT or THD2 to 488–β3-CT in the presence of 30 µM KIND2; MST buffer
T2 construct: talin-2 (TLN2) head domain (THD), residues 1-408; source: E. coli (DE3) Rosetta 2, purified (IMAC, SEC); not shown: His10-SUMO, N-terminal, cleaved

[3] = biological target: T1, kindlin-2 (KIND2); test: MST; apparent; KIND2 titrated to 488–β3-CT in the presence of 250-450 µM TLN1-F3; MST buffer
[4] = biological target: T3, THD1 K404A (UniProt P26039 1-405, K404A); test: MST; apparent; THD1 or THD1 mutants titrated to 488–β3-CT in the presence of 30-40 µM KIND2; MST buffer
T3 construct: talin-1 (TLN1) head domain, residues 1-405, K404A; source: E. coli (DE3) Rosetta 2, purified (IMAC, SEC); not shown: His10-SUMO, N-terminal, cleaved

[5] = biological target: T4, THD1 K403A (UniProt P26039 1-405, K403A); test: as above
T4 construct: talin-1 (TLN1) head domain, residues 1-405, K403A; source: E. coli (DE3) Rosetta 2, purified (IMAC, SEC); not shown: His10-SUMO, N-terminal, cleaved

[6] = biological target: T5, THD1 I396A (UniProt P26039 1-405, I396A); test: as above
T5 construct: talin-1 (TLN1) head domain, residues 1-405, I396A; source: E. coli (DE3) Rosetta 2, purified (IMAC, SEC); not shown: His10-SUMO, N-terminal, cleaved

[7] = biological target: T6, THD1 K401A (UniProt P26039 1-405, K401A); test: as above
T6 construct: talin-1 (TLN1) head domain, residues 1-405, K401A; source: E. coli (DE3) Rosetta 2, purified (IMAC, SEC); not shown: His10-SUMO, N-terminal, cleaved

[8] = biological target: T7, THD1 Y395A (UniProt P26039 1-405, Y395A); test: as above
T7 construct: talin-1 (TLN1) head domain, residues 1-405, Y395A; source: E. coli (DE3) Rosetta 2, purified (IMAC, SEC); not shown: His10-SUMO, N-terminal, cleaved

[9] = biological target: T8, THD1 K403E (UniProt P26039 1-405, K403E); test: as above
T8 construct: talin-1 (TLN1) head domain, residues 1-405, K403E; source: E. coli (DE3) Rosetta 2, purified (IMAC, SEC); not shown: His10-SUMO, N-terminal, cleaved

[10] = biological target: T9, THD1 I399A (UniProt P26039 1-405, I399A); test: as above
T9 construct: talin-1 (TLN1) head domain, residues 1-405, I399A; source: E. coli (DE3) Rosetta 2, purified (IMAC, SEC); not shown: His10-SUMO, N-terminal, cleaved

[11] = biological target: T10, THD1 I398A (UniProt P26039 1-405, I398A); test: as above
T10 construct: talin-1 (TLN1) head domain, residues 1-405, I398A; source: E. coli (DE3) Rosetta 2, purified (IMAC, SEC); not shown: His10-SUMO, N-terminal, cleaved
T10 sequence (P26039 1-405 I398A): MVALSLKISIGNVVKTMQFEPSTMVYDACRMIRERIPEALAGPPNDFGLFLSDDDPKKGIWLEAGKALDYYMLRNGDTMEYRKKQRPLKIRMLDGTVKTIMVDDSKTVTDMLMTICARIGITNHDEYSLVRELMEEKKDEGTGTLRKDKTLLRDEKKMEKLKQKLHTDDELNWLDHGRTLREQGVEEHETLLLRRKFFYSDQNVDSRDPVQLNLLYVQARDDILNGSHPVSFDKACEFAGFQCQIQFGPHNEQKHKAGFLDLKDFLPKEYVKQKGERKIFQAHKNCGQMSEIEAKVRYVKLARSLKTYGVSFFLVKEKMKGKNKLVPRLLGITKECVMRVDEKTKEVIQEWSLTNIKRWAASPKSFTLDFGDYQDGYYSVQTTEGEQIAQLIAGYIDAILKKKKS

T2 sequence (Q71LX4 1-408): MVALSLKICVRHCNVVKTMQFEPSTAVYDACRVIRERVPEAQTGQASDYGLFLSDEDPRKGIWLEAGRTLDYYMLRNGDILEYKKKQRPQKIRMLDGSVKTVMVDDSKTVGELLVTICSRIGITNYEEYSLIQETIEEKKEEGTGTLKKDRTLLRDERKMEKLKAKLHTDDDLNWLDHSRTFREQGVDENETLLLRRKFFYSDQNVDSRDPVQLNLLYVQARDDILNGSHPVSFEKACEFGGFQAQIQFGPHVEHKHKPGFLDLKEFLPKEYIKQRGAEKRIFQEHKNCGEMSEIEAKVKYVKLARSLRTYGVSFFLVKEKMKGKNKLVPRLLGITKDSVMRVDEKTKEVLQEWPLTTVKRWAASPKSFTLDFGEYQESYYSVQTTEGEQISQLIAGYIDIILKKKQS
T9 sequence (P26039 1-405 I399A): as the sequence (P26039 1-405 I398A) above, with A398I, I399A counted along it
T3 sequence (P26039 1-405 K404A): as the sequence (P26039 1-405 I398A) above, with A398I, K404A counted along it
T8 sequence (P26039 1-405 K403E): as the sequence (P26039 1-405 I398A) above, with A398I, K403E counted along it
T4 sequence (P26039 1-405 K403A): as the sequence (P26039 1-405 I398A) above, with A398I, K403A counted along it
T6 sequence (P26039 1-405 K401A): as the sequence (P26039 1-405 I398A) above, with A398I, K401A counted along it
T7 sequence (P26039 1-405 Y395A): as the sequence (P26039 1-405 I398A) above, with Y395A, A398I counted along it
T5 sequence (P26039 1-405 I396A): as the sequence (P26039 1-405 I398A) above, with I396A, A398I counted along it

Kd [1]: 16.4 µM and 15.8 µM and 16.7 µM
Kd [2]: 39.1 µM and 36.2 µM and 54 µM
Kd [3]: 119 µM and 121 µM
Kd [4]: 116 µM
Kd [5]: 114 µM
Kd [6]: 551 µM
Kd [7]: 148 µM
Kd [8]: 42 µM
Kd [9]: 116 µM
Kd [10]: 91 µM
Kd [11]: 155 µM
B1: ATTO 488-labeled integrin β3 cytoplasmic tail (488–β3-CT) (peptide, UniProt O54890 741-787, looked up)
peptide: {ATTO 488}-KLLITIHDRKEFAKFEEERARAKWDTANNPLYKEATSTFTNITYRGT
notes: integrin β3 cytoplasmic tail (β3-CT); source: synthetic peptide (MPIB Core Facility)
